The text below walks through data of PMC2822398.

In the data set the target is variola virus topoisomerase IB (vTopIB) (variola virus (smallpox), UniProt P32989 1-314). Nature of the data set: X-ray crystallography.
Sequence of variola virus topoisomerase IB (vTopIB) (P32989 whole entry): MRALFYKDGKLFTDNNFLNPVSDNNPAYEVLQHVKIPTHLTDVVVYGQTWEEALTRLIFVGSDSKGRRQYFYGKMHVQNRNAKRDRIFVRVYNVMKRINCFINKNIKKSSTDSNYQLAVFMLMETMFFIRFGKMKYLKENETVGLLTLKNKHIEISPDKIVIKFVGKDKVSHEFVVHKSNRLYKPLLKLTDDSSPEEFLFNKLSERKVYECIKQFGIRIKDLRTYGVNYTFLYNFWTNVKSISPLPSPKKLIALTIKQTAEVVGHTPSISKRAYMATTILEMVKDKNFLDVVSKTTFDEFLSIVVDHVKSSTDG

B1: nicked vTopIB-binding duplex (three oligonucleotides) (dsDNA)
DNA 1: GTGTCGCCCTT
DNA 2: ATTCC
DNA 3: CGGAATAAGGGCGACA
modifications: nick at the scissile phosphate (phosphodiester missing), filled by vanadate in the crystal
As for B1, the binding result is recorded as “binds”.
